Consider eleven molecules from article PMC7866390, “A Novel Multiprotein Bridging Factor 1-Like Protein Induces Cyst Wall Protein Gene Expression and Cyst Differentiation in Giardia lamblia”.

The labels stand for the following.
B1: 18S-30/-1 (dsDNA)
DNA 1: GGCGCCCGGCCCGCGGCGCCCGCGCCCGGC
DNA 2: GCCGGGCGCGGGCGCCGCGGGCCGGGCGCC
B2: cwp2-60/-31 (dsDNA)
DNA 1: TAGACTGATGCTGTAGAGGTCAACAGATAA
DNA 2: TTATCTGTTGACCTCTACAGCATCAGTCTA
B3: poly(A) with TT insertion (dsDNA)
DNA 1: AAAAAAAAAAATTAAAAAAAAAA
DNA 2: TTTTTTTTTTAATTTTTTTTTTT
B4: ran-51/-20 (dsDNA)
DNA 1: TAAAATAAATTAAATCGAAATTAAAACTTTAA
DNA 2: TTAAAGTTTTAATTTCGATTTAATTTATTTTA
B5: poly(A) (dsDNA)
DNA 1: AAAAAAAAAAAAAAAAAAAAAAA
DNA 2: TTTTTTTTTTTTTTTTTTTTTTT
B6: cwp1-90/-46 (dsDNA)
DNA 1: CTGGCTAACAGTCTACAGTCTACAATTTACAGTATACAATCTACA
DNA 2: TGTAGATTGTATACTGTAAATTGTAGACTGTAGACTGTTAGCCAG
B7: cwp2-30/+8 (dsDNA)
DNA 1: CAGCAGCTCAACAGTGGCTGGGAAAATAAAATGATCGC
DNA 2: GCGATCATTTTATTTTCCCAGCCACTGTTGAGCTGCTG
B8: poly(A) with T insertion (dsDNA)
DNA 1: AAAAAAAAAAATAAAAAAAAAAA
DNA 2: TTTTTTTTTTTATTTTTTTTTTT
B9: cwp3-60/-31 (dsDNA)
DNA 1: GTAGACTTTGAGTTACTTAGCTCTACAGTT
DNA 2: AACTGTAGAGCTAAGTAACTCAAAGTCTAC
B10: myb2-30/-1 (dsDNA)
DNA 1: TACTAAAATAATAATTACTCTGTACTGCTA
DNA 2: TAGCAGTACAGAGTAATTATTATTTTAGTA
B11: cwp1-45/-1 (dsDNA)
DNA 1: GTTTACAACTCTCAGATCAAGAAACACAGAAATAAAATATCAGGG
DNA 2: CCCTGATATTTTATTTCTGTGTTTCTTGATCTGAGAGTTGTAAAC

For the first data set, the target named is T1, MBF1 (Giardia lamblia, UniProt A8BZ03 1-107).
T1 sequence: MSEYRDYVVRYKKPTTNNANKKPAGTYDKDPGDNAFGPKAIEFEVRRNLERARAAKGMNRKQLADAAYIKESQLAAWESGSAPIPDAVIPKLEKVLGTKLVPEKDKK
Put plainly: EMSA; EMSA, 5 ng purified protein, 5'-end-labeled ds oligonucleotides, 6% polyacrylamide gel; buffer, salt, pH and temperature not given (cited to ref 19). To be noted: protein: recombinant; tags: C-terminal V5 and His (pET101/D-TOPO).
With B1, the binding result is “no binding”.

Staying with this data set, now noted: protein: recombinant; tags: C-terminal V5 and His (pET101/D-TOPO); label: 5'-32P.
As for B2, the binding result was “binds”. On the same count and under the same terms, for B3 the value was “binds”. Same read-out and setting: for B4 the value was “binds”. Still for that read-out and setting: next, B5: “binds”. For the molecule B6, the binding result is “binds”. On the same count and under the same terms, for B7 the value was “binds”. Same read-out and setting: next, B8: “binds”.

B9: the binding result was “binds”. On the same count and under the same terms, next, B10: “binds”.

The next data set has as its target T1, MBF1. Put plainly: EMSA; supershifted by anti-V5-HRP; competed by 200-fold cold cwp1-45/-1; EMSA, 5 ng purified protein, 5'-end-labeled ds oligonucleotides, 6% polyacrylamide gel; buffer, salt, pH and temperature not given (cited to ref 19). To be noted: protein: recombinant; tags: C-terminal V5 and His (pET101/D-TOPO); label: 5'-32P. (In general: In EMSA bound probe runs differently from free probe, usually more slowly.)
Regarding B11, the binding result is “binds”.
